We go through 3 molecules from patent publication US20040229274A1 (Johns Hopkins, published 2004).

The target of assay [1] is truncated mGluR5 (C-terminal 4 amino acids deleted) expressed in HEK-293 cells (UniProt P31424). Nature of the assay: bead-linked GST-Homer pull-down from HEK-293 cell extracts, immunoblot.
Assay [2] concerns the target mGluR2 transiently expressed in HEK-293 cells (UniProt P31421 19-872). Nature of the assay: bead-linked GST-Homer pull-down from extracts of transfected HEK-293 cells, immunoblot. From the text: (§1) To measure the binding interaction, mGluR5 and mGluR1a were expressed in HEK-293 cells. Cell extracts were mixed with bead-linked GST-Homer and were then eluted with SDS loading buffer. When the C-terminal 4 amino acids of mGluR5 were deleted, binding of the mGluR5 to Homer was reduced by greater than 70% (FIG. 10D, lanes 3 and 4). […] Neither mGluR2 nor mGluR4 bind Homer protein (FIGS. 10B, 10C).
(§2) For experiments examining specificity of Homer binding to metabotropic glutamate receptors, HEK-293 cells were transiently transfected with mGluR1a, mGluR2, mGluR4 or mGluR5 expression constructs, scraped into PBS+1% Triton X100, sonicated 2×10 seconds, centrifuged at 15,000 g for 10 minutes at 4° C., and pre-cleared. Lysate from half of a 10 cm plate was incubated with 50 μl of beads linked to 250 ng of protein and washed as above. Samples were analyzed by western blot analysis using the appropriate polyclonal mGluR antibody. Deletion constructs of Homer were prepared by PCR and cloned as fusion constructs with GST in pGEX (Pharmacia, Piscataway, N.J.).

The target in assay [3] is mGluR4 transiently expressed in HEK-293 cells (UniProt P31423 33-912). The description is as above.
Chain of mGluR4 transiently expressed in HEK-293 cells (P31423 33-912 limits assumed): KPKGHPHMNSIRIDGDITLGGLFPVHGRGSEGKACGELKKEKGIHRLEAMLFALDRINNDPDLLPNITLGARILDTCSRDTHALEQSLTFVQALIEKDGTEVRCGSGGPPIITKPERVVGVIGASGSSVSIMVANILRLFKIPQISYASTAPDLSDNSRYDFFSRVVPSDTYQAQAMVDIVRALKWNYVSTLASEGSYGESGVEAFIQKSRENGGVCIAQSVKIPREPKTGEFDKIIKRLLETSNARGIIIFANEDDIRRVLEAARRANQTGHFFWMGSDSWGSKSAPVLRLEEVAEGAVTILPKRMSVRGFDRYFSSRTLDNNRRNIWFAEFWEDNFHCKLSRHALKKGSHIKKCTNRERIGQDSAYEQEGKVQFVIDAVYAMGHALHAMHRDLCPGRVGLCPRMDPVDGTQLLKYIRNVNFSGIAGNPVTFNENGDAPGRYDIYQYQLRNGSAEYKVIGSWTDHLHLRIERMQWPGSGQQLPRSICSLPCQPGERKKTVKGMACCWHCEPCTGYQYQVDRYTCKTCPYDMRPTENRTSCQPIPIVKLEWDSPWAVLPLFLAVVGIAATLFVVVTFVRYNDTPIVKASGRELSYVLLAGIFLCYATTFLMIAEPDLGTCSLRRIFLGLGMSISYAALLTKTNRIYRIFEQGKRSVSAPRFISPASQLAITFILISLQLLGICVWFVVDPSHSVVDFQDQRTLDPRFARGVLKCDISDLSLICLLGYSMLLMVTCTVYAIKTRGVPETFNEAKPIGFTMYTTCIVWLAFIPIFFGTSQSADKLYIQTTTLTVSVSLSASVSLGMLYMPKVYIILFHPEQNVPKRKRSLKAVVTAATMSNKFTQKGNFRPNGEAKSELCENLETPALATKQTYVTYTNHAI
Excerpt: as §1, §2

Assay [4] addresses T1, C-terminal 195 amino acids of mGluR5 encoded by an interacting cDNA of the rat hippocampus library in pPC86 (rat, UniProt P31424 1009-1203).
T1 construct: not shown: GAL4 domain supplied by vector pPC86
Nature of the assay: yeast GAL4 two-hybrid screen, selection without leucine, tryptophan and histidine, confirmed by β-galactosidase assay. On the procedure:
In experiments carried out in support of the present invention and described in Example 5 herein, the yeast GAL4 two-hybrid system was used to identify binding partners of the rat Homer protein in a rat brain cDNA library (Chevray and Nathans, 1992). A PCR product of the full-length Homer ORF with flanking SmaI sites was subcloned into the yeast expression vector pPC97. A random primed cDNA library was prepared from seizure stimulated adult rat hippocampus and cloned into the yeast expression vector pPC86. The library contains 2×10⁶ independent cDNAs. A total of 1.5×10⁶ clones were screened. Interacting proteins were identified by selection on plates lacking leucine, tryptophan, and histidine, restreaked and confirmed using a β-galactosidase assay.
The full-length Homer ORF with flanking SmaI sites was subdloned into the yeast expression vector pPC97. A random primed cDNA library was prepared from seizure stimulated adult rat hippocampus and cloned into the yeast expression vector pPC86. The library contains 6×10⁶ independent cDNAs and a total of 1.5×10⁶ were screened. Interacting proteins were identified by colony selection on plates lacking leucine, tryptophan, and histidine and confirmed using a β-galactosidase assay (Ausubel, et al., 1992). […]

The target in assay [5] is T2, myc-tagged mGluR5 C-terminus (195 aa) expressed in HEK-293 cells (UniProt P31424 1009-1203).
T2 construct: it is put first here; not shown: myc tag
T2 sequence (P31424 1009-1203 limits assumed): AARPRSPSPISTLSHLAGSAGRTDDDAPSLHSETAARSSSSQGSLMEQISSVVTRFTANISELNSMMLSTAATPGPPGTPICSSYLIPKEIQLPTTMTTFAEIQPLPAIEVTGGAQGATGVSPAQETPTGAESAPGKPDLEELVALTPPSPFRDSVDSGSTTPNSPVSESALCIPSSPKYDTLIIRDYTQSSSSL
Nature of the assay: GST-Homer deletion constructs, pull-down of myc-tagged mGluR5 C-terminus, immunoblot for myc.

Chain of mGluR2 transiently expressed in HEK-293 cells (P31421 19-872 limits assumed): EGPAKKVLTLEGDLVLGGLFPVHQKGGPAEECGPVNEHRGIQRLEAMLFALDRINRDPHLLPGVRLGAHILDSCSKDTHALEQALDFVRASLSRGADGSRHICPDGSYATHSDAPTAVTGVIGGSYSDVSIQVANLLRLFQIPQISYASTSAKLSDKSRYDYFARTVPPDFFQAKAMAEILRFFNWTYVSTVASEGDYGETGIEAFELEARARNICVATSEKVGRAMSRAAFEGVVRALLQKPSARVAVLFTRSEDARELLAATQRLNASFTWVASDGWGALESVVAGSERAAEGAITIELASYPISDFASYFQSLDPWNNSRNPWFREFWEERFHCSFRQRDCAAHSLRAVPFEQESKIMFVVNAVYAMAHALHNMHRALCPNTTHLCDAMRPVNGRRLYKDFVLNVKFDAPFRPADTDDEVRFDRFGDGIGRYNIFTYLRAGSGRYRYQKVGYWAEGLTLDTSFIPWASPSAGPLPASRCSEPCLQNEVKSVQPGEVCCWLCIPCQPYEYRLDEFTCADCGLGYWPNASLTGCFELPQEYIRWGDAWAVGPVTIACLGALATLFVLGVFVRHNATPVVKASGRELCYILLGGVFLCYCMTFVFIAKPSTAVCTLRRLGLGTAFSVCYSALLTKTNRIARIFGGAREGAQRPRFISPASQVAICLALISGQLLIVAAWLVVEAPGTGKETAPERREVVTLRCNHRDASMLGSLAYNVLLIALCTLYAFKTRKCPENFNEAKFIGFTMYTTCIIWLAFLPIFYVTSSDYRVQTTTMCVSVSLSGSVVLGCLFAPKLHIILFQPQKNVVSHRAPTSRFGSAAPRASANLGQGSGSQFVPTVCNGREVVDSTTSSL
T1 sequence (P31424 1009-1203): as the sequence (P31424 1009-1203 limits assumed) above

B1: GST-Homer fusion protein (full length rat Homer, 1-186, fused to glutathione-S-transferase) (other)
chain: MGEQPIFSTRAHVFQIDPNTKKNWVPTSKHAVTVSYFYDSTRNVYRIISLDGSKAIINSTITPNMTFTKTSQKFGQWADSRANTVYGLGFSSEHHLSKFAEKFQEFKEAARLAKEKSQEKMELTSTPSQESAGGDLQSPLTPESINGTDDERTPDVTQNSEPRAEPAQNALPFSHRYTFNSAIMIK
notes: Bacterially expressed from pGEX; GST is put first as usual for pGEX; also called Homer GST fusion protein; Homer-GST fusion protein; not shown: glutathione-S-transferase (GST) encoded by the bacterial vector pGEX (Pharmacia)
The molecule B1 had a reduction of binding against full length mGluR5 in assay [1] greater than 70%. Further, the binding result in assay [2] and in assay [3] was “no binding” throughout.

B2: full-length Homer ORF in yeast expression vector pPC97 (GAL4 two-hybrid fusion) (other)
chain: MGEQPIFSTRAHVFQIDPNTKKNWVPTSKHAVTVSYFYDSTRNVYRIISLDGSKAIINSTITPNMTFTKTSQKFGQWADSRANTVYGLGFSSEHHLSKFAEKFQEFKEAARLAKEKSQEKMELTSTPSQESAGGDLQSPLTPESINGTDDERTPDVTQNSEPRAEPAQNALPFSHRYTFNSAIMIK
notes: also called Homer (two-hybrid bait); not shown: GAL4 domain supplied by vector pPC97
For the molecule B2, the binding result in assay [4] was “binds”.

B3: GST-Homer deletion construct, Homer fragment 109-186 (N-terminal 108 amino acids deleted) (other, not shown: a dimerising Fc or GST; large carriers; small tags and cut ends)
chain: AARLAKEKSQEKMELTSTPSQESAGGDLQSPLTPESINGTDDERTPDVTQNSEPRAEPAQNALPFSHRYTFNSAIMIK
notes: GST put first as usual for pGEX
B3: the binding result in assay [5] is listed as “no binding”.
